Where two headings read alike, the source gives them in different places.
T1: Sgf11 full-length, released from GST (S. cerevisiae, UniProt Q03067 1-99)
T1 sequence (looked up): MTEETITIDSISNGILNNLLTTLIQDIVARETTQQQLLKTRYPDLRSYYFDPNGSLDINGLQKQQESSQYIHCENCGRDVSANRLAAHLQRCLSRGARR

T2: GST-Sac3 753-805 / Cdc31 complex (yeast, UniProt P46674 753-805; P06704 1-161)
T2 sequence (looked up) 1: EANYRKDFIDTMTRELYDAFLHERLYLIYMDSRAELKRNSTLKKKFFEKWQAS
T2 sequence (looked up) 2: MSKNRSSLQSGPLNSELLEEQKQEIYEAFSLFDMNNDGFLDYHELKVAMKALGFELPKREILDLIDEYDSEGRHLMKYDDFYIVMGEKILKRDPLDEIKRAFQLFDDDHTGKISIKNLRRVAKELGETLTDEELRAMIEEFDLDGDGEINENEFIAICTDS

T3: GST-Sac3 723-805 / Cdc31 complex (yeast, UniProt P46674 723-805; P06704 1-161)
T3 sequence (looked up) 1: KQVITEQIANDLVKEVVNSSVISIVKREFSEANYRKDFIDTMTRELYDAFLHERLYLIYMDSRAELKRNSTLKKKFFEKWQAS
T3 sequence (looked up) 2: T2 sequence (looked up) 2

B1: Sus1 (natural protein, yeast, UniProt Q6WNK7 1-96, looked up)
chain: MTMDTAQLKSQIQQYLVESGNYELISNELKARLLQEGWVDKVKDLTKSEMNINESTNFTQILSTVEPKALEMVSDSTRETVLKQIREFLEEIVDTQ

Assays:
[1] = biological target: T1, Sgf11 full-length, released from GST; assay: SEC
[2] = biological target: T2, GST-Sac3 753-805 / Cdc31 complex; assay: pull-down
[3] = biological target: T3, GST-Sac3 723-805 / Cdc31 complex; assay: pull-down
Sus1 [4] = biological target: B1; assay: crystal structure
Sus1 [5] = biological target: B1; assay: crystal structure; remark: listed apart in the source

Binder: B1
- binding result [1]: binds
- binding result [2]: binds
- binding result [3]: binds

Binder: TIDSISNGILNNLLTTLIQDIVARETT (domain or fragment, S. cerevisiae, UniProt Q03067 7-33, looked up) [Sgf11-(7-33), released from GST]
- binding result (Sus1 [4]): binds

Binder: MTEETITIDSISNGILNNLLTTLIQDIVARETT (domain or fragment, S. cerevisiae, UniProt Q03067 1-33, looked up) [Sgf11-(1-33), released from GST]
- binding result (Sus1 [5]): binds

From publication PMC2823527 (The Journal of Biological Chemistry, 2009)
